Data reported in patent publication US20130310317A1 (Bristol-Myers Squibb, published 2013).
Where two headings read alike, the source gives them in different places.

Experiments:
human IGF-IR on cells [1] = target: T1, human IGF-IR on cells (human, UniProt P08069 31-1367); assay: cell-based or functional assay
human IGF-IR on cells [2] = target: T1, human IGF-IR on cells; assay: displacement of [125I]-IGF-I from MCF-7 cells
Protocol: (§1) Cells were subsequently lysed and radioactivity was quantitated.
(§2) The human breast adenocarcinoma MCF-7 (ATCC, Manassas, Va.) was plated in 24 well plates at a concentration of 50,000 cells per well in RPMI 1640 (Invitrogen, Carlsbad, Calif.) containing 10% fetal bovine serum (Hyclone, Logan, Utah). The following day, cells were washed in binding buffer consisting of RPMI 1640 containing 0.1% BSA (Sigma, St. Louis, Mo.), and then pre-incubated for 30 minutes on ice in 200 μL binding buffer containing IGF-IR competitor. […] The wells were then washed with ice cold PBS containing 0.1% BSA. Cells were lysed with 500 μL buffer consisting of 0.1% SDS+0.5 N NaOH. Radioactivity of the lysates was measured using a Wallac 1470 Gamma Counter (Perkin Elmer, Wellesley, Mass.), and the data were analyzed using SigmaPlot (Systat Software, Point Richmond, Calif.).

human IGF-IR on cells [3] = target: T1, human IGF-IR on cells; assay: displacement of 40 pM [125I]-IGF-I from MCF-7 cells, on ice, cell-bound CPM
Protocol: as §1, §2

IGF-IR-Fc [4] = target: T2, IGF-IR-Fc (human, UniProt P08069 31-932); assay: SPR (BIAcore); immobilized IGF-IR, analyte in solution
T2 construct: range 1-932; Made in house by transient transfection, captured on Protein A on CM5 chips for kinetic analysis; also called human IGF-IR-Fc fusion protein; recombinant, immobilized IGF-IR (BIAcore); not shown: hinge and constant regions of human IgG1
Protocol: (§3) The binding kinetics of fibronectin-based scaffold proteins binding proteins to the target was measured using BIAcore 2000 or 3000 biosensors (Pharmacia Biosensor). A capture assay was developed utilizing an IGF-IR-Fc fusion. A similar reagent had been described by Forbes et al. (Forbes et al. 2002, European J. Biochemistry, 269, 961-968). The extracellular domain of human IGF-IR (aa 1-932) was cloned into a mammalian expression vector containing the hinge and constant regions of human IgG1. Transient transfection of the plasmid produced a fusion protein, IGF-IR-Fc which was subsequently purified by Protein A chromatography and captured on Protein A immobilized on Biasensor CM5 chips by amine coupling. The kinetic analysis involved the capture of IGF-IR-Fc on Protein A followed by injection of the fibronectin-based scaffold protein in solution and regeneration of the Protein A surface by glycine pH 2.0. Sensorgrams were obtained at each concentration and were evaluated using a program Biaevaluation, BIA Evaluation 2.0 (BIAcore), to determine the rate constants kₐ (kₒₙ) and kd (koff) The dissociation constant, KD was calculated from the ratio of rate constants koff/kₒₙ. Typically, a concentration series (2 uM to 0 uM) of purified fibronectin-based scaffold protein was evaluated for binding to protein A captured human IGF-IR-Fc fusion protein.

IGF-IR-Fc [5] = target: T2, IGF-IR-Fc; assay: SPR (BIAcore); IGF-IR-Fc captured on Protein A, analyte in solution
Protocol: as §3

[6] = target: T3, recombinant human insulin receptor (human, UniProt P06213-2 28-944, limits assumed); assay: SPR (BIAcore), IR amine-coupled to chip
T3 construct: Amine-coupled to a CM5 chip (8300 RU); also called IR
Protocol: (§4) In brief, 60 ug/mL of IR diluted in acetate 4.5 was coupled/immobilized to a level of 8300 RU and 11.9 ug/mL of VEGF-R2-Fc diluted in acetate 5.0 was immobilized to a level of 9700 RU on flow cells 2 and 3. A blank reference surface was prepared on FC 1. […] Fibronectin-based scaffold proteins were diluted to 10 uM in HBS-EP (10 mM Hepes 150 mM NaCl 3 mM EDTA 0.05% Surfactant P20) and injected at 20 uL/min for 3 minutes over the flow cells at 25 C and dissociation was observed over 10 mins.

recombinant human IGF-IR [7] = target: T4, recombinant human IGF-IR (human, UniProt P08069 31-932); assay: competitive ELISA, coated IGF-IR, biotinylated IGF-I as competitor
T4 construct: Bought (R&D Systems); also called insulin-like growth factor-I receptor; IGF-1R
Protocol: (§5) MaxiSorp™ plates (Nunc International, Rochester, N.Y.) were coated with 30 nM IGF-IR in PBS at 4° C. overnight followed by blocking in OptEIA buffer (BD biosciences, San Diego, Calif.) for 3 hours at room temperature. Purified fibronectin-based scaffold proteins in OptEIA buffer were bound to each well for 1 hour at room temperature at concentrations ranging from 50 pM to 1 μM. […] The excess ligand was removed by washing with PBST and bound ligand was detected with streptavidin-HRP (Pierce, Rockford, Ill.) using TMB detection reagents (BD biosciences) according to the manufacturer's instructions

IGF-IR-Fc [8] = target: T2, IGF-IR-Fc; assay: SPR (BIAcore); IGF-IR-Fc captured on Protein A, clone in solution
Protocol: One liter E. coli growths of selected optimized clones were prepared and the proteins were purified. Surface plasmon resonance (BIAcore) analysis was performed using recombinant, immobilized IGF-IR and solution-phase clones in order to determine binding kinetics and binding affinities.
as §3

[9] = target: T3, recombinant human insulin receptor; assay: SPR (BIAcore); IR amine-coupled to chip, clone at 10 µM, signal as % of insulin signal
Protocol: (§6) One liter E. coli growths of selected optimized clones were prepared and the proteins were purified.
as §4

recombinant human IGF-IR [10] = target: T4, recombinant human IGF-IR; assay: direct binding ELISA: plate coated with 10 nM IGF-IR, His-tagged clone detected with His-HRP probe, TMB, OD450
Protocol: MaxiSorp™ plates (Nunc International, Rochester, N.Y.) were coated with 10 nM IGF-IR in PBS at 4° C. overnight followed by blocking in PBS-casein buffer (Pierce) for 3 hours at room temperature. Purified fibronectin-based scaffold proteins in casein buffer were bound to each well for 1 hour at room temperature at a concentration of 5 nM. The plate was washed with PBST and 100 μl of a 1:4000 dilution of His-HRP probe (Pierce) was added to each well with incubation for 15 min at room temperature. The wells were washed 5 times with PBST and the bound HRP was detected with TMB detection reagents (BD biosciences) according to the manufacturer's instructions.

recombinant human IGF-IR [11] = target: T4, recombinant human IGF-IR; assay: competitive ELISA: plate coated with 30 nM IGF-IR, clone bound first, then 10 nM biotinylated IGF-I as the blocked ligand, streptavidin-HRP/TMB, OD450
Protocol: as §5

[12] = target: T3, recombinant human insulin receptor; assay: SPR (BIAcore), IR amine-coupled to chip; remark: listed apart in the source
Protocol: as §6, §4

IGF-IR-Fc [13] = target: T2, IGF-IR-Fc; assay: SPR (BIAcore); IGF-IR-Fc captured on Protein A, clone in solution; remark: listed apart in the source
Protocol: as §3

Molecule | IC50, serum mediated proliferation of NCI-H929 cells (human IGF-IR on cells [1]) [pM] | IC50 (human IGF-IR on cells [2]) [nM] | IC50 (read off the curve) (human IGF-IR on cells [3]) [nM] | fold change of on-rate (ka) relative to unmodified 385A08 (IGF-IR-Fc [4]) | Kd (IGF-IR-Fc [5]) [nM] | koff (IGF-IR-Fc [5]) [s⁻¹] | kon (IGF-IR-Fc [5]) [M⁻¹ s⁻¹] | Kd (IGF-IR-Fc [8]) [nM] | koff (IGF-IR-Fc [8]) [s⁻¹] | kon (IGF-IR-Fc [8]) [M⁻¹ s⁻¹] | IC50 (read off the curve) (recombinant human IGF-IR [11]) [nM] | further results
385A08-PEG20-385A08 (designed binder, Cys97 coupled by maleimide chemistry to a linear 20 kDa bifunctional PEG that links the two chains, Two copies of 385A08 with the C-terminal Cys extension, joined through PEG; also called PEG20-385A08-PEG20 variant) GVSDVPRDLEVVAATPTSLLISWSARLKVARYYRITYGETGGNSPVQEFTVPKNVYTATISGLKPGVDYTITVYAVTRFRDYQPISINYRTEIDKPCQ | < 0.1 | – | – | ~2 fold faster | 0.006 | 9e-05 | 1.5e+07 | – | – | – | – | –
338A06 (designed binder, Optimized derivative of 218C04; also called clone 338A06; parent clone 338A06) VSDVPRDLEVVAATPTSLLISWSARLKVARYYRITYGETGGNSPVQEFTVPKNVYTATISGLKPGVDYTITVYAVTKMRDYRPISINYRTHHHHHH | – | 1 to 2 | ~1 | – | – | – | – | 0.069 | 0.00043 | ~6.2e+06 | ~0.7 | IC50, IGF-I-dependent proliferation of BxPC-3 cells (3H-thymidine) (human IGF-IR on cells [1]): 10 to 20 nM; binding result [6]: no binding (tested: 10 µM); IC50 (recombinant human IGF-IR [7]): ≤ 1 nM; % IR Binding at 10 µM [9]: 2%; EC50 (read off the curve) (recombinant human IGF-IR [10]): ~2 nM
218C04 (designed binder, also called clone 218C04; pre-optimized clone) VSDVPRDLEVVAATPTSLLISWSPYLRVARYYRITYGETGGNSPVQEFTVPSSARTATISGLKPGVDYTITVYAVTPSNIIGRHYGPISINYRTHHHHHH | – | – | – | – | – | – | – | – | – | – | – | Kd (IGF-IR-Fc [13]): 1.8 nM

Second part, led by results:

IC50, serum mediated proliferation of NCI-H929 cells (human IGF-IR on cells [1]) [pM] | IC50 (human IGF-IR on cells [2]) [nM] | IC50 (read off the curve) (human IGF-IR on cells [3]) [nM] | fold change of on-rate (ka) relative to unmodified 385A08 (IGF-IR-Fc [4]) | Kd (IGF-IR-Fc [5]) [nM] | koff (IGF-IR-Fc [5]) [s⁻¹] | kon (IGF-IR-Fc [5]) [M⁻¹ s⁻¹] | Kd (IGF-IR-Fc [8]) [nM] | koff (IGF-IR-Fc [8]) [s⁻¹] | kon (IGF-IR-Fc [8]) [M⁻¹ s⁻¹] | IC50 (read off the curve) (recombinant human IGF-IR [11]) [nM] | Molecule | further results
100 | 5 | 2 | – | – | – | – | – | – | – | – | anti-IGF-IR monoclonal antibody MAB391 | –
~1000 | – | – | ~10 fold slower | 0.355 | 0.00021 | 600000 | – | – | – | – | 385A08-PEG40 (designed binder, Cys97 coupled by maleimide chemistry to a mono-functional branched 40 kDa PEG) GVSDVPRDLEVVAATPTSLLISWSARLKVARYYRITYGETGGNSPVQEFTVPKNVYTATISGLKPGVDYTITVYAVTRFRDYQPISINYRTEIDKPCQ | –
– | – | – | – | – | – | – | 0.057 | 0.00022 | 3.8e+06 | ~1 | 353H09 (designed binder, Optimized derivative of 218C04) VSDVPRDLEVVAATPTSLLISWSDKLKVQRYYRITYGETGGNSPVQEFTVPKHDRTATISGLKPGVDYTITVYAVTKMRDYRPISINYRTHHHHHH | binding result [12]: no binding (tested: 10 µM)
